Source: article PMC2120956

Key:
[1] = target: embryonic breast muscle myosin isolated from d15 chick embryos (chicken) (UniProt P02565)
[2] = target: embryonic myosin isolated from primary culture myotubes (chicken) (UniProt P02565)

- actin filament velocity, in vitro motility assay [1]: 3.8 um/s
- actin filament velocity, in vitro motility assay [2]: 3.1 um/s
Substance: F-actin (from UniProt P68139 1-377) (natural protein)
